# In US20220348685A1 (ACCELERON PHARMA, published 2022):
# Substitutions are numbered along the chain they refer to.
# T1: human ALK7-EK-Fc comprising protein (human, UniProt Q8NER5 22-113)
# T1 construct: also called ALK7-Fc comprising protein; Human ALK7-Fc comprising protein; not shown: 'EK' segment between ALK7 and Fc; Fc portion
# T1 sequence: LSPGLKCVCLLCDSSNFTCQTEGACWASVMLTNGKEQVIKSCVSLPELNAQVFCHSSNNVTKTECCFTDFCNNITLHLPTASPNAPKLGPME
# B1: M01 (antibody, V domains shown)
# VH: QLQLQESGPGLVKPSETLSLTCTVSGGSISSSAYYWAWIRQPPGKGLEWIGSIYLSGSTTYNPSLKSRVTISVDTSKNQFSLKLSSVTAADTAVYYCARDGRYQSRSPDYYYGMDVWGQGTTVTVSS
# VL: EIVLTQSPGTLSLSPGERATLSCRASQSVSDNYLAWYQQKPGQAPRLLIYGASNIATGIPDRFSGSGSGTDFTLTISRLEPEDFAVYYCASVFSYPFTFGGGTKVEIK
# notes: Kappa light chain is implied by the anti-kappa reagent and KappaSelect; In SPR the antibody was captured on a custom FAB chip; also called ALK7 mAb M01
# B2: N02 (antibody, V domains shown)
# VH: B1 VH
# VL: B1 VL with D31S, N32S, N54S, I55T, T57Y, A90Q, S91Q, V92L, F93V, S94A
# B3: P03 (antibody, V domains shown)
# VH: QVQLVQSGAEVKKPGASVKVSCKASGYTFAGYNMHWVRQAPGQGLEWVGIINPNSGWTNYAQKFQGRVTMTRDTSVSAAYMELSRLRSDDTAVYYCARDPVGARYEVFDYWGQGTLVTVSS
# VL: EIVMTQSPATLSVSPGERATLSCQASQSVSSNLAWYQQKPGQAPRLLIYGASTIATGIPARFSGSGSGTEFTLTISSLQSEDFAVYYCQQAYAFPLTFGGGTKVEIK
# B4: Q04 (antibody, V domains shown)
# VH: B3 VH
# VL: B3 VL with Q24K, I54R, Y92V, A93K
# Target: T1, human ALK7-EK-Fc comprising protein
# Assay: SPR (Biacore T100/T200), antibody captured on FAB chip, ALK7-Fc protein as analyte, 1:1 model
# Description: Experiments were performed using a Biacore T100/T200 biosensor (Biacore/GE Healthcare) at 25 and 37° C. ALK7 antibodies were captured on custom made FAB chip. A concentration series of ALK7-Fc comprising protein was injected over the flow cells at a flow rate of […]. To obtain kinetic rate constants the corrected data were fit to a 1:1 interaction model using BiaEvaluation software (GE Healthcare). The equilibrium binding constant KD was determined by the ratio of binding rate constants kd/ka.
Binder,Kd [pM],koff [s⁻¹],kon [M⁻¹ s⁻¹]
B1,1000,4.32e-05,43100
B2,870,5.2e-05,59800
B3,390,1.43e-05,36600
B4,1420,4.7e-05,33100
